In the supplement of paper PMC10567573:

B1: BRF1 (parent)
chain: FVESSGGGSSAVGQFVSLDGAGKT
B2: KLHL12 (parent)
chain: SMTTPRCYVGATVLRGRLYAIAGY

Variants of: B1
Experiment: protein stability index of a GFP-peptide fusion (GPS, HEK-293T) (PSI 1-6); higher = more stable
Conditions: c terminus: a fixed tail appended
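Also: lentivirally expressed fusions sorted by FACS into six bins by GFP to DsRed ratio, PSI derived from sequencing read proportions per bin multiplied by bin number.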

Protein stability index, by site and new letter:
S5: I 2.24 | L 1.36 | Y 1.53 | E 3.68 | K 2.58 | G 2.19 | M 1.75 | T 2.62 | A 2.57 | V 1.75 | C 2.03 | P 2.01 | R 1.92 | Q 2.71 | F 3 | D 3.37 | H 1.81 | N 2.65
E3: Q 1.78 | W 3.35 | I 2.62 | N 1.75 | C 1.88 | L 1.17 | T 1.43 | H 2.01 | V 3.03 | S 1.33 | D 1.97 | M 2.71 | R 3.14
V2: C 3.96 | I 3.22 | R 4.44 | W 4.01 | Q 4.12 | P 4.97 | E 5.33 | S 4.35 | K 4.25 | N 4.94 | L 4.72 | T 4.76 | Y 4.16 | F 4.2 | A 3.78 | M 4.49 | G 4.36 | D 5.17 | H 3.87
G7: E 3.02 | A 2.86 | D 3.52 | C 2.31
S4: E 3.28 | W 2.63 | K 2.63 | L 1.51 | C 3.2 | M 1.08 | A 1.97 | Y 1.3 | Q 2.72 | N 2.62 | I 1.86 | V 2.54 | F 2.01 | H 2.57 | R 2.42 | D 2.49 | P 2.67 | G 2.81 | T 2.29
F1: P 5.24 | Q 5.13 | L 4.89 | H 4.71 | I 4.34 | Y 2.75 | M 4.99 | R 5 | T 5.09 | W 3.88 | K 4.59 | G 5.26 | V 4.82 | N 5.17 | C 4.65 | A 4.71 | D 5.32 | E 5.04 | S 5.15
G6: W 2.5 | V 2.18 | D 2.96 | K 2.3 | F 1.45 | T 2.53 | Q 2.66 | Y 2.45 | N 1.89 | I 1.49 | P 2.23 | E 2.94 | R 2.27 | C 1.97 | S 2.7 | H 1.74 | L 1.97 | A 2.37 | M 1.76

Variants of: B2
Experiment: as above
Conditions: c terminus: a fixed tail appended

Protein stability index of substitutions, site by site:
G23: W 2.54 | D 1.64 | A 3.75 | R 1.97 | K 1.35 | N 1.78 | F 2.6 | P 2.39 | I 1.86 | S 2.08 | H 3.9 | Q 3.57 | L 3.25 | T 2.54 | E 2.19 | M 2.83
I21: W 2.43 | R 1.93 | S 1.2 | Q 1.67 | T 1.37 | V 2.33
Y24: E 2.33 | N 1.75 | W 2.45 | T 1.82 | R 1.95 | A 1.48 | M 3.33 | F 3.7 | Q 2.45 | C 1.82 | P 2.64 | I 2.45 | G 2.13 | L 2.46 | D 2.03 | H 1.43 | K 2.17 | S 1.27
A22: F 2.3 | R 2.86 | I 3.06 | P 2.08 | D 2.12 | K 1.52 | M 2.01 | G 1.24 | S 1.26 | N 1.3 | V 1.94 | Q 1.52 | C 3.97 | H 2.68 | T 1.69 | E 2.3
